The series deals with MS2 coat protein. Briefly: apparent KD of MS2 coat protein; higher = weaker reporter binding. The settings on record: Eterna round: R107. In short, it runs like this: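 Each design's apparent KD comes from the median of binding-curve fits to its normalised clusters. Those clusters carried RNA switches transcribed on-chip from Illumina sequencing clusters. SNAP-549-labelled MS2 coat protein was titrated onto them in twofold steps (0.7 or 1.5 nM to 3 µM; per step 0.8–1.5 h down to 10–20 min). Conditions were 100 mM Tris-HCl pH 7.5, 80 mM KCl, 4 mM MgCl2, without or with constant ligand.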

Where [1] appears, read: input ligand: theophylline 20 uM.
Where [2] appears, read: input ligand: theophylline 2 mM.
[3] abbreviates: input ligand: tryptophan 2.4 mM.

Regarding “CCAUCUACAUCGGCCGCCACUGAACCAAGGAGACAUGAGGAUCACCCAUGUAUGGGAAACCAUCAUAGGACCGGGAUGAUCUACC [doubleHook]”, the “apparent KD of MS2 coat protein” value by setting is: (input ligand: arginine 13.2 mM) 95.2 nM; under setting [1], 336 nM; under setting [2], 415 nM.
For the sequence “CCAUGCAGGUCGGCCGCCACUACACACAUGAGGAUCACCCAUGUAGUUACUGGGUGAAGUGGCAGUAGGACCGGGACCUGCACAC [Brourdmod20]”, the “apparent KD of MS2 coat protein” value is 84 nM (input ligand: arginine 13.2 mM); 289 nM (input ligand: none); 446 nM under setting [1]; 601 nM under setting [2]; 335 nM under setting [3].
Consider “CCCAACAGUGAUGCCGGUGUUGGUGGUGAUACCAGCGUCUUAUGGCGCCCUUGGCAGCACCAACAUGAGGAUCACCCAUGUGAAA [Beenerveor]”, for which the “apparent KD of MS2 coat protein” value reads like this: (input ligand: arginine 13.2 mM) 19.8 nM; under setting [1], 113 nM; under setting [3], 36.9 nM.
As to “CCCUGGGUGGGAAGGAGCGCAUAUUCAACAUGAGGAUCACCCAUGUACAGACGUGAGUCAUUGCAGGUAGGUCGCCCACCCAGGG [SS-ArgB21]”, the “apparent KD of MS2 coat protein” value runs as follows: (input ligand: arginine 13.2 mM) 12.9 nM; (input ligand: none) 15.7 nM; under setting [1], 20.4 nM; under setting [2], 14.8 nM; under setting [3], 15.5 nM.
For “CCGCACAUGAGGAUCACCCAUGUCAGGGAUACCAGCCCAGACAUGGGCCCUUGGCAGCUUUGUAGCUGACGAAAGUCAGCAGCGG [Omei Theo A SS A v2]”, in that order: 17.6 nM, 33.6 nM, 62.3 nM, 101 nM and 59.2 nM.
As for “CCUAUGCAGUCGGCCGCCACUGAACAUGAGGAUCACCCAUGUAAUUAAAAUUAAGAUCCUGAAAUCAGGACCGGGACUGUAUAGG [Ex Tryptophan B 4]”, the “apparent KD of MS2 coat protein” value worked out at 25.5 nM (input ligand: arginine 13.2 mM); 1520 nM (input ligand: none); 280 nM under setting [1]; 140 nM under setting [2]; 196 nM under setting [3].
The corresponding values for “CCUCGGGACCGAAGGAGCGAGAUAACAACAAUGGGUCUCUACACAUGAGGAUCACCCAUGUCUCAGGUAGGUCGCGGUACCUUAG [Exclusion Arginine B GF23]” are 137 nM, 261 nM, 287 nM, 491 nM and 238 nM.
For “CCUGAUGAGUCGGCCGCCACUCCAGUUGUAUUACAGGUUUUCGUAGACAUGAGGAUCACCCAUGUGAGGACCGGGACACACACAG [theeternabot_exclusion_MS2_Trp_B_21]”, in that order: 11.7 nM, 11.3 nM, 23.8 nM, 17.4 nM and 17.2 nM.
As to “CCUUAAUAUAGAAGGAGCGCGCUAACAUGAGGAUCACCCAUGUAAAGGGUUUUGGGCUUAGCGCAGGUAGGUCGCUAUAAGAACC [Arg B Ex t2]”, the “apparent KD of MS2 coat protein” value is, setting by setting: (input ligand: arginine 13.2 mM) 60.1 nM; (input ligand: none) 106 nM; under setting [1], 95 nM; under setting [2], 127 nM; under setting [3], 93.9 nM.
The corresponding values for “CGAAAGCUCCUUAUGUGCUUUCGACUGGAAGGAGCGAGCGAAAGCUCAGGUAGGUCGCCAGAAACAUGAGGAUCACCCAUGUAAU [(A)''-(M)'-(A)'(Arg1)-(Arg2)-(M1)-(M2)_Design9]” are 29.8 nM, 18 nM, 25.6 nM, 27.2 nM and 18.5 nM.
Regarding “CGAAUACCAAUUGAUACCAGCAUGUUAACAUGAGGAUCACCCAUGUUAAGGAUAACAUAAUGCCCUUGGCAGCAACGUAAAUUCG [Aa]”, the “apparent KD of MS2 coat protein” value by setting is: (input ligand: arginine 13.2 mM) 19.2 nM; under setting [1], 22.9 nM; under setting [3], 19.6 nM.
In the case of “CGACUGUAAAGUCGACCGGUCAUCAAUAAUCGAGGACCGGUACGGCCGCCACUCGAUGUGAUUUCACAUGAGGAUCACCCAUGUA [Tryptophan A 17]”, the “apparent KD of MS2 coat protein” value came out at 24.1 nM (input ligand: arginine 13.2 mM), 26.3 nM under setting [1] and 29.1 nM under setting [2].
For “CGAGUAAGAACAAUCGAAUAACGGUUUUCGCGAGGACCGGUACGGCCGCCACUCGUGUGAUAUCACACAUGAGGAUCACCCAUGU [3'end-1]”, in that order: 61.3 nM, 96.7 nM and 101 nM.
For “CGAGUAGGUUCAAUCGAAUAACGGUUUUCGCGAGGACCGGUACGGCCGCCACUCGUGUGAUAUCACACAUGAGGAUCACCCAUGU [3'end-1]”, in that order: 33.5 nM, 49.2 nM and 68 nM.
The corresponding values for “CGAUAUAAGACGGCCGCCACUAUUAAGUAACAAAAUAAACAUGAGGAUCACCCAUGUACAUGGGAUAGGACCGGGUCCAAUAACG [A1]” are 48.3 nM, 163 nM and 166 nM.
Regarding “CGAUAUGAGGUCGAUACCAGCAGCUUCAAGCACAUGAGGAUCACCCAUGUCCAUUUUACUUGCCCUUGGCAGCGACUUUGGAAAC [theeternabot_sameState_MS2_Theo_B_23]”, the “apparent KD of MS2 coat protein” value is, setting by setting: (input ligand: arginine 13.2 mM) 36.2 nM; under setting [1], 34.9 nM; under setting [3], 38.4 nM.
As for “CGCCCAGUUACGGCCGCCACUUCGAUGGCAAAUGUCGAGCCUCCACAUGAGGAUCACCCAUGUCGAAGGACCGGGUACUGCUUGC [theeternabot_sameState_MS2_Trp_B_17]”, the “apparent KD of MS2 coat protein” value (input ligand: arginine 13.2 mM) amounted to 29.4 nM, the “apparent KD of MS2 coat protein” value under setting [1] came to 44.4 nM and the “apparent KD of MS2 coat protein” value under setting [2] was 38 nM.
Consider “CGCCUACAGGUGUACUAUUGUGGUGAAGAUACCAGAUAGCCCAAUAUCCCUUGGCAGCUUCAGACAUGAGGAUCACCCAUGUAUC [theeternabot_exclusion_MS2_Theo_A_30]”, for which the “apparent KD of MS2 coat protein” value is, setting by setting: (input ligand: arginine 13.2 mM) 17.8 nM; under setting [1], 18.7 nM; under setting [3], 15.5 nM.
“CGGCCCUCACUUGAGGAACACCCAAGUGAUACCAGCCUGGAAACAGGCCCUUGGCAGCACUAGGUCAUCAAAGAUGACCAAGCCG [TheoAX 29 #OpenEnded #AlternativeMS2]”: the “apparent KD of MS2 coat protein” value (input ligand: arginine 13.2 mM) was determined as 17.7 nM; the “apparent KD of MS2 coat protein” value (input ligand: none) came out at 23.8 nM; the “apparent KD of MS2 coat protein” value under setting [1] stood at 42.8 nM; the “apparent KD of MS2 coat protein” value under setting [2] amounted to 373 nM; the “apparent KD of MS2 coat protein” value under setting [3] came to 23.1 nM.
As to “CGGUUUGUGAUGGAUACCAGCAGAGAAAAUGUUUAUCCUAACAUGAGGAUCACCCAUGUAUGCCCUUGGCAGCUGUUGUGGGCUG [8.V]”, the “apparent KD of MS2 coat protein” value reads like this: (input ligand: arginine 13.2 mM) 43.3 nM; under setting [1], 80.4 nM; under setting [3], 52.5 nM.
Turning to “CGUAUUGGAAACAGUACGAGUGAUCCGGUCCGAGGACCGGUACGGCCGCCACUCGAAAUUAAUAAACAUGAGGAUCACCCAUGUA [Ex Tryptophan A 10]”, the “apparent KD of MS2 coat protein” value came out at 14.8 nM (input ligand: arginine 13.2 mM), 19.6 nM under setting [1] and 20.2 nM under setting [2].
For “CGUAUUGGAAACAGUACGAGUGAUCCGGUCCGAGGACCGGUACGGCCGCCACUCGAUAUAAAUAAACAUGAGGAUCACCCAUGUA [Ex Tryptophan A 12]”, in that order: 17.1 nM, 16.9 nM and 20.3 nM.
For “CUACAUUUGUAGAAACCGGUCAACAAUAUUCGAGGACCGGUACGGCCGCCACUCGUAUAAUUUAAUACAUGAGGAUCACCCAUGU [Tryptophan A 4]”, in that order: 14.8 nM, 18.2 nM and 17.1 nM.
For “CUACAUUUGUAGAAACCGGUCACCAUUACUCGAGGACCGGUACGGCCGCCACUCGUGUCAUGUGAUACAUGAGGAUCACCCAUGU [Tryptophan A 10]”, in that order: 21.7 nM, 26.2 nM and 27.1 nM.
On to “CUCCCACUAUCUGAUACCAGAGGAUAAACGUAGACUGGGAACAUGAGGAUCACCCAUGUCCUCCCUUGGCAGCAGGACUUAUCUC [theeternabot_exclusion_MS2_Theo_B_29]”, for which the “apparent KD of MS2 coat protein” value (input ligand: arginine 13.2 mM) amounted to 22.2 nM, the “apparent KD of MS2 coat protein” value under setting [1] stood at 29.9 nM and the “apparent KD of MS2 coat protein” value under setting [3] turned out to be 22.2 nM.
For “CUCCCGUGGUCGGCCGCCACUGGAGGCCUCGCGCGACAUGAGGAUCACCCAUGUUGGCCCGGCCUCAGGACCGGGAUCGCGUGAG [#1 Same State - Tryptophan B Attempt #7 (HarryS)]”, the “apparent KD of MS2 coat protein” value is 11.2 nM (input ligand: arginine 13.2 mM); 13.7 nM (input ligand: none); 17.9 nM under setting [1]; 11.9 nM under setting [2]; 10.9 nM under setting [3].
Consider “CUCGUCAACUCGGCCGCCACUGACGUGUGGUCAGGCCUGUAGAAACACAUGAGGAUCACCCAUGUCAGGACCGGGAGCUUUAUUA [theeternabot_exclusion_MS2_Trp_B_26]”, for which the “apparent KD of MS2 coat protein” value came out at 31.8 nM (input ligand: arginine 13.2 mM), 73.5 nM under setting [1] and 61.6 nM under setting [2].
As for “CUCUGAGUCCGUAAGGACUCAGAGGCGGAUACCAGCGAGGUCCAUCGCCCUUGGCAGCCGAACAUGAGGAUCACCCAUGUCGGUA [#1 Same State - Theophylline A Attempt #25 (HarryS)]”, the “apparent KD of MS2 coat protein” value was determined as 11.6 nM (input ligand: arginine 13.2 mM); 9.76 nM (input ligand: none); 12.6 nM under setting [1]; 19.8 nM under setting [2]; 11.5 nM under setting [3].
For “CUCUGAGUGAGAAAUCACUCAGAGGCGGAUACCAGCGAGGUCCAUCGCCCUUGGCAGCCGAACAUGAGGAUCACCCAUGUCGGUA [#1 Same State - Theophylline A Attempt #21 (HarryS)]”, in that order: 9.9 nM, 10.8 nM, 14 nM, 14.5 nM and 9.34 nM.
With “CUCUUGGCCGCAGUACGUUUAUAGACCUAUCGAGGACCGGUACGGCCGCCACUCGGUUAGUCACAUGAGGAUCACCCAUGUGUCC [theeternabot_exclusion_MS2_Trp_A_38]”, the “apparent KD of MS2 coat protein” value reads like this: (input ligand: arginine 13.2 mM) 17 nM; under setting [1], 23 nM; under setting [2], 19.7 nM.
The corresponding values for “CUUAUAUAUACGGCCGCCACUUACUCAUGAGGUAACAACAUGAGGAUCACCCAUGUUUGAGGAUCAAGGACCGGGUAUAUAUAAG [AstrosSSTry#18]” are 23.2 nM, 35.9 nM and 33.8 nM.
As for “GAACAUGAGGAUCACCCAUGUGAGAAUGAUACCAGUAGAAGAAGAUGCCCUUGGCAGCGUGCGUGAGGAUCACCCAUGUAGGAGG [e-theoA-0]”, the “apparent KD of MS2 coat protein” value by setting is: (input ligand: arginine 13.2 mM) 30 nM; under setting [1], 34.1 nM; under setting [3], 25.9 nM.
As for “GAAGAUCCGUAAGAUACCAGUGCAGAUCGGCACAUGAGGAUCACCCAUGUAAAGCAAGAACACCCUUGGCAGCUUUCGUAACAAC [theeternabot_sameState_MS2_Theo_B_15]”, the “apparent KD of MS2 coat protein” value by setting is: (input ligand: arginine 13.2 mM) 66.9 nM; under setting [1], 64.8 nM; under setting [3], 109 nM.

Source of the values: the supplement of paper PMC9170038.
